Reference: the DeepSol protein solubility set

Assay: soluble on expression in E. coli; label from the status in PepcDB or PDB records

Row | Sequence | soluble on expression in E. coli
1 | MGHHHHHHSHMKNLVLKIISGSFPPVSLHYSYDLRSLVSQLFKRNPRDRPSVNSILEKGFIAKRIEKFLSPQLIAEEFCLKTFSKFGSQPIPAKRPASGQNSISVMPAQKITKPAAKYGIPLAYKKYGDKKLHEKKPLQKHKQAHQTPEKRVNTGEERRKISEEAARKRRLEFIEKEKKQKDQIISLMKAEQMKRQEKERLERINRAREQGWRNVLSAGGSGEVKAPFLGSGGTIAPSSFSSRGQYEHYHAIFDQMQQQRAEDNEAKWKREIYGRGLPERGILPGVRPGFPYGAAGHHHFPDADDIRKTLKRLKAVSKQANANRLDCDDP | not soluble
2 | MNMIPKVAMFGTGYVGLVSGVCIADFGINVICVDVDKEKIDGLNNGKIPIYEPGLDVFLERNIKAGRIQFTTDAKMAIEESNVLFIAVGTPPKENGEADMQYVYAVAETIGQYMNGYKVIVDKSTVPVGTGQVVKKIIADKLKERGVEYSFDVVSNPEFLREGKALYDFTHPDRVVIGVESEEVAEIMKKVYRPLYINETPFVITNIETAEMIKYASNAFLATKITFINEIANLCEKVGANVQQVAMAMGRDGRIGPKFLHAGPGFGGSCFPKDTKALVQIAEKHGVQMSVVNAVIEANERQKKMVAEKLEKFAGDLKGKTIGILGLAFKPETDDVREAPALTIIADLIERGASIRAYDPQAMEEAKKALRKYADNITYCKHAYDTAESVDALVIVTEWHEFRNMDLTLLKKIMRGNIFYDARNIYSRKDIEEKGFVFIGTGV | not soluble
3 | DLVASGATLPEIQKRGYLTVAVKDNLRPLGFRDDKGNLQGLEIDLAKRLANDLLGKPDAVKFQPVANSDRLPVIVENKIDLAIANVTATESRSRIVSFSVPYYYDGAAIVTKDTSINQLEDLYRRKIAVLNNSSTIFYVKYFIPKSELIGVSSYAQAQEKIESNAVDAFAADNSLLSGWVQEYPKYHILPSQLSTEPLSVVMAKGLQYDEFRRSVNEAIARYIATGWLKESTQHWGLGNSQEKTLTTDR | not soluble
4 | MSLDVAIGEVLAEVAAQEGDRLALVEVVPNGMDSPVGAASTSRRWTYAQLNDDARRCASWLLTQFKTGDHICVWAPNVPEWIVLQYGAALSGLVLVTANPALKASELEFVLQQSQSVALFHLDAFRGVETGAVARSFASAKLRCISFSGWLAEIRRTEIGALPRIDPGQPAQIQYTSGTTGRPKGALLHHRGLITNASYVAARAGLDHSVLLSPMPLFHTAGSIMSVLGCLNSRSTLVLPLLFDPGTVLDAIAHTRADTLFGVPTMLLAVIDAQLQAPRDLSSLRVAASGGAQVPPELHRRIHDALKLPLLTVFGQTELSPIVSQTCIDDPDEQRIHSVGRPLWNVEVRIVDPNGDRVVVIGVEGEIQVRGYQTMLGYFNAPKETSETITADGWLRTGDLGAMDEAGYLRITGRLKDMIIRGGENIYPAEVEACLLRHPAVADISVFGAPDDKWGEVVAAAVRLVPDVPVTATELSAFCKTEIAPHKAPTVWYACTGFPLTASGKIQKFRLRDAAVEGELQRLSEGHHHHHH | soluble
5 | MNAVKIEKGVAQYIEHNLYYYFEYVRDIQRLKKDILFGRANYDENVGGGRGNLPSRPTERRTIELITHRRLERLEQIVHAIQTVYRSLSPEKQKAVQLKYWSGKSYTWEQVAREIGVSVRQLYRWRDQIIYDIAKLLGEVNSNS | not soluble
6 | AHHHHHHGSSKDRMVELLQEHFELNLYEARAYVALVAFGVLTPAELASVSEVPAPRTYDVLRSLEKKGFAMTQPGKTNKYRPVHPANVLEKFIQDWQERVKEELEAKKKAKEELLELMAPLIETEVPKYGVERVWVVRGIKNSTLKTKEMLEEAQNEILLADDGFIAVNLEDDIIKAVDRGVKTKILLTKNLLPRLKASKIIDYAKEGKLELRALDKFDLPMLICDEEVFFALEDLAARYFNYETQVWIKDHRVVALFKEKFNEYWEKAEKV | soluble
7 | MSSSLFAPTIETIDYPFPPKPVPLSDAQKADYKARIKQLLIEKDAVLVAHYYTDPEIQALAEETGGCVSDSLEMARFGRDHPAKTLIVAGVKFMGETAKILSPEKTILMPTLEATCSLDLGCPIDKFSAFCDAHPDHTVVVYANTSAAVKARADWVVTSSIALEIVEHLDSEGKKIIWGPDRHLGSYIAKQTGAEMLMWQGDCIVHDEFKANALRDLKSVYPDAAILVHPESPASVVAMADAVGSTSQLIKAAQTMPNERFIVATDRGIFYKMQQAAPGKTLIEAPTGGNGATCKSCAHCPWMAMNGLKAIEASLSNSDKTTHEIFVDEDLRVKALIPLTRMLDFAKTLNMKVKGNA | soluble
8 | GSHMEAPILYEDPPEKLTSKDGRAANMKITSWNVDGLRAWVKKNGLDWVRKEDPDILCLQETKCAEKALPADITAMPEYPHKYWAGSEDKEGYSGVAMLCKTEPLNVTYGIGKEEHDKEGRVITAEFPDFFLVTAYVPNASRGLVRLDYRKTWDVDFRAYLCGLDARKPLVLCGDLNVAHQEIDLKNPKGNRKNAGFTPEEREGFTQLLEAGFTDSFRELYPDQAYAYTFWTYMMNARSKNVGWRLDYFVLSSALLPGLCDSKIRNTAMGSDHCPITLFLAV | soluble
9 | MILKPENEKKLIIDVLKKFGVPEEDAKITADVFVDADLKGFTSHGIGRFPQYITALKLGNINPKPDIKIVKESPATAVIDGDLGLGQVVGKKAMELAIKKAKNVGVGVVATRNANHFGIAGYYSELAMNQDMIGITITNTEPAMAPFGGKEKILGTNPIAIAFKGNKYKFSLDMATASIARGKILEALRKKIKIPEGCAVDKDGKPTTDPAKALEGCILPFGGPKGYGLALAIEMLSAIGGAEVGTKVKGTANPEERCTKGDLFIAINPEFFMGKEEFKRKVDELLDEIKNSEPAEGFEILIPGEIEERNKMKRKDGFEIDKNLYNQLKEICNELGLNIEDYIE | soluble
10 | MGSDKIHHHHHHAEAPLRPDQAAFRDLYREMVETDTSITTGSCTLLADRIEARLRGAGFADGQIHRFAVPEFPKEGGIVAILPGTSAKARPILLLGHLDVVVAKREDWTRDPYRLIEEGGYFYGRGVADMKAMDAIWVDMLMRFRKEGRKPRRTIKLALTCGEETSTAFNGAKWLAENRRDLIDAEFALNEGGSGRTDKPLEEGGRVVLQTIHVGEKTPVNYRVEATNPGGHSSMPVRDNAIYELSDALVRLRDYEFPVMLNDTTRAFFAKAGAARGDAMGKAMVAVSADPADKAAVALLDTDRSFHSMLRTTCVATLLDGGHANNALPQRAGANVNCRIFPGVTAEEVRGTLETVVADPRMTVVRTDNRGPDAKAPPLDPKIVGPAEKLVAKYYPGVPMVPMMSTGATDGVFLGAVGIPSYGPPGLFGNPDGNGVHGLNERISVQAVYAGRDLLTELVTAYAF | not soluble
11 | VKKIKDIGEVAGGSTPSTKIKEYWGGDIPWITPKDLANYEYIYISRGERNITEKAVKECSLRIFPKGTILLTSRAPIGYVAIAKNPLTTNQGFRNIIPKDGVVSEYLYYLFKTKTMSEYLKDISGGSTFPELKGSTLKEVEIPYPSPEEQQKIATVLSYFDD | not soluble
12 | MAHHHHHHMDKYGDRKLQEGIYKLNNKKIKGYIPFQSASSIIPKQIRDKGIIEVMKELEKREEELNEKTKNDQEKHKVNKMNLFKSNSMNVKRKHVFSSFKIPRKI | soluble
13 | PYPIDLVSVVIPVYNEEASLPELLRRTEAACLELGRAFEIVLVDDGSRDRSAELLQAAAERDGSAVVAVILNRNYGQHAAILAGFEQSRGDLVITLDADLQNPPEEIPRLVERAAQGYDVVGSIRAERQDSAWRRWPSRLVNLAVQRSTGVAMHDYGCMLRAYRRSIVEAMLACRERSTFIPILANGFARHTCEIRVAHAERAHGESKYSAMRLLNLMFDLVTCMTTTPLR | not soluble
14 | MKTQFIAGHARLPAGMAAKSLYDTLTITAEIDKKYGVIVEASCTLATEHGRDYVARLLRGHSLRDGIDGLLAELDEGYLGKAHSALCAALKDLYKQYCKMEEKEP | not soluble
15 | MQDKCMMRPLSNPLTEAYNVQNLYQCLNCDDYHLCNGSLNCDPLVDREGIVCTVTGKYIQCNVRELEHHHHHH | not soluble
16 | PARPFRVSNHDRSSRRGVMASSLQELISKTLDALVIATGLVTLVLEEDGTVVDTEEFFQTLGDNTHFMILEKGQKWMP | soluble
